To fix the notation:
T1: human neuropeptide Y2 receptor (human, UniProt P49146 1-381)
T1 construct: whole, on cells; also called hNPY2 receptor; hNPY2-R
T1 sequence (looked up): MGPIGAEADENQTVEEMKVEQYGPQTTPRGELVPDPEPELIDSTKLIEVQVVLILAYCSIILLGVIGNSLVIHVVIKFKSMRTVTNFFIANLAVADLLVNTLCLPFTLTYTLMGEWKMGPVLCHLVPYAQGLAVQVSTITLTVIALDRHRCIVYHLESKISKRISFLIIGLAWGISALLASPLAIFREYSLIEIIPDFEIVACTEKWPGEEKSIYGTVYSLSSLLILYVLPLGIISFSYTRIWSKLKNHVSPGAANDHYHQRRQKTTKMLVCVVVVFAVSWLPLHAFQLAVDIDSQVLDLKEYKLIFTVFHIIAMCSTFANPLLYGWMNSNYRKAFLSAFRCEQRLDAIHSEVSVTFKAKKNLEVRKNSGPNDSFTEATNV

B1: Compound 232 (peptide)
peptide: Isovaleryl-APAK([AEEA-AEEA-γGlu-C18 diacid])PPEDASPEELQRYYVELRHYYNWLTRQRY-NH2
SMILES: CC(C)CC(=O)N[C@@H](C)C(=O)N1CCC[C@H]1C(=O)N[C@@H](C)C(=O)N[C@@H](CCCCNC(=O)COCCOCCNC(=O)COCCOCCNC(=O)CC[C@H](NC(=O)CCCCCCCCCCCCCCCCC(=O)O)C(=O)O)C(=O)N1CCC[C@H]1C(=O)N1CCC[C@H]1C(=O)N[C@@H](CCC(=O)O)C(=O)N[C@@H](CC(=O)O)C(=O)N[C@@H](C)C(=O)N[C@@H](CO)C(=O)N1CCC[C@H]1C(=O)N[C@@H](CCC(=O)O)C(=O)N[C@@H](CCC(=O)O)C(=O)N[C@@H](CC(C)C)C(=O)N[C@@H](CCC(N)=O)C(=O)N[C@@H](CCCNC(=N)N)C(=O)N[C@@H](Cc1ccc(O)cc1)C(=O)N[C@@H](Cc1ccc(O)cc1)C(=O)N[C@H](C(=O)N[C@@H](CCC(=O)O)C(=O)N[C@@H](CC(C)C)C(=O)N[C@@H](CCCNC(=N)N)C(=O)N[C@@H](Cc1c[nH]cn1)C(=O)N[C@@H](Cc1ccc(O)cc1)C(=O)N[C@@H](Cc1ccc(O)cc1)C(=O)N[C@@H](CC(N)=O)C(=O)N[C@@H](Cc1c[nH]c2ccccc12)C(=O)N[C@@H](CC(C)C)C(=O)N[C@H](C(=O)N[C@@H](CCCNC(=N)N)C(=O)N[C@@H](CCC(N)=O)C(=O)N[C@@H](CCCNC(=N)N)C(=O)N[C@@H](Cc1ccc(O)cc1)C(N)=O)[C@@H](C)O)C(C)C
B2: Compound 243 (peptide)
peptide: Isovaleryl-APEK([AEEA-AEEA-γGlu-C18 diacid])PEEEASPEELQQYYVSLRHYYNWLTRQRY-NH2
SMILES: CC(C)CC(=O)N[C@@H](C)C(=O)N1CCC[C@H]1C(=O)N[C@@H](CCC(=O)O)C(=O)N[C@@H](CCCCNC(=O)COCCOCCNC(=O)COCCOCCNC(=O)CC[C@H](NC(=O)CCCCCCCCCCCCCCCCC(=O)O)C(=O)O)C(=O)N1CCC[C@H]1C(=O)N[C@@H](CCC(=O)O)C(=O)N[C@@H](CCC(=O)O)C(=O)N[C@@H](CCC(=O)O)C(=O)N[C@@H](C)C(=O)N[C@@H](CO)C(=O)N1CCC[C@H]1C(=O)N[C@@H](CCC(=O)O)C(=O)N[C@@H](CCC(=O)O)C(=O)N[C@@H](CC(C)C)C(=O)N[C@@H](CCC(N)=O)C(=O)N[C@@H](CCC(N)=O)C(=O)N[C@@H](Cc1ccc(O)cc1)C(=O)N[C@@H](Cc1ccc(O)cc1)C(=O)N[C@H](C(=O)N[C@@H](CO)C(=O)N[C@@H](CC(C)C)C(=O)N[C@@H](CCCNC(=N)N)C(=O)N[C@@H](Cc1c[nH]cn1)C(=O)N[C@@H](Cc1ccc(O)cc1)C(=O)N[C@@H](Cc1ccc(O)cc1)C(=O)N[C@@H](CC(N)=O)C(=O)N[C@@H](Cc1c[nH]c2ccccc12)C(=O)N[C@@H](CC(C)C)C(=O)N[C@H](C(=O)N[C@@H](CCCNC(=N)N)C(=O)N[C@@H](CCC(N)=O)C(=O)N[C@@H](CCCNC(=N)N)C(=O)N[C@@H](Cc1ccc(O)cc1)C(N)=O)[C@@H](C)O)C(C)C
B3: Compound 234 (peptide)
peptide: Isovaleryl-APAK([AEEA-AEEA-γGlu-C18 diacid])PEEEASPEELQRYYVSLRHYYNWLTRQRY-NH2
SMILES: CC(C)CC(=O)N[C@@H](C)C(=O)N1CCC[C@H]1C(=O)N[C@@H](C)C(=O)N[C@@H](CCCCNC(=O)COCCOCCNC(=O)COCCOCCNC(=O)CC[C@H](NC(=O)CCCCCCCCCCCCCCCCC(=O)O)C(=O)O)C(=O)N1CCC[C@H]1C(=O)N[C@@H](CCC(=O)O)C(=O)N[C@@H](CCC(=O)O)C(=O)N[C@@H](CCC(=O)O)C(=O)N[C@@H](C)C(=O)N[C@@H](CO)C(=O)N1CCC[C@H]1C(=O)N[C@@H](CCC(=O)O)C(=O)N[C@@H](CCC(=O)O)C(=O)N[C@@H](CC(C)C)C(=O)N[C@@H](CCC(N)=O)C(=O)N[C@@H](CCCNC(=N)N)C(=O)N[C@@H](Cc1ccc(O)cc1)C(=O)N[C@@H](Cc1ccc(O)cc1)C(=O)N[C@H](C(=O)N[C@@H](CO)C(=O)N[C@@H](CC(C)C)C(=O)N[C@@H](CCCNC(=N)N)C(=O)N[C@@H](Cc1c[nH]cn1)C(=O)N[C@@H](Cc1ccc(O)cc1)C(=O)N[C@@H](Cc1ccc(O)cc1)C(=O)N[C@@H](CC(N)=O)C(=O)N[C@@H](Cc1c[nH]c2ccccc12)C(=O)N[C@@H](CC(C)C)C(=O)N[C@H](C(=O)N[C@@H](CCCNC(=N)N)C(=O)N[C@@H](CCC(N)=O)C(=O)N[C@@H](CCCNC(=N)N)C(=O)N[C@@H](Cc1ccc(O)cc1)C(N)=O)[C@@H](C)O)C(C)C
B4: Compound 238 (peptide)
peptide: Isovaleryl-APEK([AEEA-AEEA-γGlu-C18 diacid])TEEEASPEELQRYYVSLRHYYNWLTRQRY-NH2
SMILES: CC(C)CC(=O)N[C@@H](C)C(=O)N1CCC[C@H]1C(=O)N[C@@H](CCC(=O)O)C(=O)N[C@@H](CCCCNC(=O)COCCOCCNC(=O)COCCOCCNC(=O)CC[C@H](NC(=O)CCCCCCCCCCCCCCCCC(=O)O)C(=O)O)C(=O)N[C@H](C(=O)N[C@@H](CCC(=O)O)C(=O)N[C@@H](CCC(=O)O)C(=O)N[C@@H](CCC(=O)O)C(=O)N[C@@H](C)C(=O)N[C@@H](CO)C(=O)N1CCC[C@H]1C(=O)N[C@@H](CCC(=O)O)C(=O)N[C@@H](CCC(=O)O)C(=O)N[C@@H](CC(C)C)C(=O)N[C@@H](CCC(N)=O)C(=O)N[C@@H](CCCNC(=N)N)C(=O)N[C@@H](Cc1ccc(O)cc1)C(=O)N[C@@H](Cc1ccc(O)cc1)C(=O)N[C@H](C(=O)N[C@@H](CO)C(=O)N[C@@H](CC(C)C)C(=O)N[C@@H](CCCNC(=N)N)C(=O)N[C@@H](Cc1c[nH]cn1)C(=O)N[C@@H](Cc1ccc(O)cc1)C(=O)N[C@@H](Cc1ccc(O)cc1)C(=O)N[C@@H](CC(N)=O)C(=O)N[C@@H](Cc1c[nH]c2ccccc12)C(=O)N[C@@H](CC(C)C)C(=O)N[C@H](C(=O)N[C@@H](CCCNC(=N)N)C(=O)N[C@@H](CCC(N)=O)C(=O)N[C@@H](CCCNC(=N)N)C(=O)N[C@@H](Cc1ccc(O)cc1)C(N)=O)[C@@H](C)O)C(C)C)[C@@H](C)O
B5: Compound 242 (peptide)
peptide: Isovaleryl-APEK([AEEA-AEEA-γGlu-C18 diacid])PEADASAEELQRYYVSLRHYYNWLTRQRY-NH2
SMILES: CC(C)CC(=O)N[C@@H](C)C(=O)N1CCC[C@H]1C(=O)N[C@@H](CCC(=O)O)C(=O)N[C@@H](CCCCNC(=O)COCCOCCNC(=O)COCCOCCNC(=O)CC[C@H](NC(=O)CCCCCCCCCCCCCCCCC(=O)O)C(=O)O)C(=O)N1CCC[C@H]1C(=O)N[C@@H](CCC(=O)O)C(=O)N[C@@H](C)C(=O)N[C@@H](CC(=O)O)C(=O)N[C@@H](C)C(=O)N[C@@H](CO)C(=O)N[C@@H](C)C(=O)N[C@@H](CCC(=O)O)C(=O)N[C@@H](CCC(=O)O)C(=O)N[C@@H](CC(C)C)C(=O)N[C@@H](CCC(N)=O)C(=O)N[C@@H](CCCNC(=N)N)C(=O)N[C@@H](Cc1ccc(O)cc1)C(=O)N[C@@H](Cc1ccc(O)cc1)C(=O)N[C@H](C(=O)N[C@@H](CO)C(=O)N[C@@H](CC(C)C)C(=O)N[C@@H](CCCNC(=N)N)C(=O)N[C@@H](Cc1c[nH]cn1)C(=O)N[C@@H](Cc1ccc(O)cc1)C(=O)N[C@@H](Cc1ccc(O)cc1)C(=O)N[C@@H](CC(N)=O)C(=O)N[C@@H](Cc1c[nH]c2ccccc12)C(=O)N[C@@H](CC(C)C)C(=O)N[C@H](C(=O)N[C@@H](CCCNC(=N)N)C(=O)N[C@@H](CCC(N)=O)C(=O)N[C@@H](CCCNC(=N)N)C(=O)N[C@@H](Cc1ccc(O)cc1)C(N)=O)[C@@H](C)O)C(C)C
B6: Compound 241 (peptide)
peptide: Isovaleryl-APEK([AEEA-AEEA-γGlu-C18 diacid])PEEEASPEEIQRYYVSLRHYYNWLTRQRY-NH2
SMILES: CC[C@H](C)[C@H](NC(=O)[C@H](CCC(=O)O)NC(=O)[C@H](CCC(=O)O)NC(=O)[C@@H]1CCCN1C(=O)[C@H](CO)NC(=O)[C@H](C)NC(=O)[C@H](CCC(=O)O)NC(=O)[C@H](CCC(=O)O)NC(=O)[C@H](CCC(=O)O)NC(=O)[C@@H]1CCCN1C(=O)[C@H](CCCCNC(=O)COCCOCCNC(=O)COCCOCCNC(=O)CC[C@H](NC(=O)CCCCCCCCCCCCCCCCC(=O)O)C(=O)O)NC(=O)[C@H](CCC(=O)O)NC(=O)[C@@H]1CCCN1C(=O)[C@H](C)NC(=O)CC(C)C)C(=O)N[C@@H](CCC(N)=O)C(=O)N[C@@H](CCCNC(=N)N)C(=O)N[C@@H](Cc1ccc(O)cc1)C(=O)N[C@@H](Cc1ccc(O)cc1)C(=O)N[C@H](C(=O)N[C@@H](CO)C(=O)N[C@@H](CC(C)C)C(=O)N[C@@H](CCCNC(=N)N)C(=O)N[C@@H](Cc1c[nH]cn1)C(=O)N[C@@H](Cc1ccc(O)cc1)C(=O)N[C@@H](Cc1ccc(O)cc1)C(=O)N[C@@H](CC(N)=O)C(=O)N[C@@H](Cc1c[nH]c2ccccc12)C(=O)N[C@@H](CC(C)C)C(=O)N[C@H](C(=O)N[C@@H](CCCNC(=N)N)C(=O)N[C@@H](CCC(N)=O)C(=O)N[C@@H](CCCNC(=N)N)C(=O)N[C@@H](Cc1ccc(O)cc1)C(N)=O)[C@@H](C)O)C(C)C

*1 amine or outer side, *2 acyl side, *3 side chain or, on linkers, in order; H or OH if unused. Side-chain parts run from the residue outwards. The star is where a group is joined. C18 diacid = O=C(O)CCCCCCCCCCCCCCCCC(=O)*; γGlu = O=C(O)[C@H](CCC(=O)[*:2])N[*:1]; Isovaleryl = CC(C)CC(=O)*; AEEA = NCCOCCOCC(=O)O

The assay has as its target T1, human neuropeptide Y2 receptor. Briefly: radioligand competition (125I-PYY(1-36)), hNPY2R membranes. An outline of the steps: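 Commercial human Y2 receptor membranes (0.5 μg protein/well) were incubated with peptide for 2 h at room temperature in 50 mM HEPES, 5 mM MgCl₂, 1 mM CaCl₂, pH 7.4, with 0.2% ovalbumin. Bound radioligand was separated on PEI-soaked GF/C filters and counted by scintillation, and IC₅₀ came from nonlinear sigmoidal regression.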
(In general: Loss of bound radioactivity is the signal in a displacement assay; it reports binding, not function.)
Take B1: the affinity corresponds to a Ki of 0.81 nM.
On to B2, for which the inhibition constant Ki was 2.07 nM.
In turn, B3 registered a Ki of 1.95 nM.
To B4 belongs 25.1 nM; to B5, 0.81 nM.
To B6 belongs 2.95 nM.

One may read the Ki as a dissociation constant, usually derived from enzyme kinetics or from competition with a known ligand.
